Series [1] relates to HeLa Kyoto. Nature of the series: solubility change mitosis vs G1/S (difference of NP-40 vs SDS log2 ratios) (log2 ratio difference); higher = more soluble in mitosis.
Series [2] has as its system HeLa Kyoto. Nature of the series: melting temperature (median over replicates), in situ; higher = more thermally stable.
Series [3] has as its system HeLa Kyoto. The series can be described thus: solubility in G1/S (NP-40 vs SDS abundance) (log2 ratio); higher = more soluble. The settings on record: cell cycle stage: G1/S.
Series [4] relates to HeLa Kyoto. The series can be described thus: thermal stability score vs G1/S (z-score of summed log2 fold changes over temperatures); higher = more thermally stable than in G1/S.
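Throughout, for melting temperature (median over replicates), in situ: HeLa Kyoto cells synchronized by double thymidine or nocodazole block, proteins quantified by TMT10plex mass spectrometry, three independent biological replicates.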
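Throughout, for solubility change mitosis vs G1/S (difference of NP-40 vs SDS log2 ratios): synchronized HeLa Kyoto cells (double thymidine block for G1/S, nocodazole release for mitosis), protein amounts in NP-40 versus SDS lysates quantified by mass spectrometry, three biological replicates.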
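Throughout, for solubility in G1/S (NP-40 vs SDS abundance): HeLa Kyoto cells arrested at G1/S by double thymidine block, proteins quantified by TMT10plex mass spectrometry in mild NP-40 versus SDS extracts, three biological replicates.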
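Throughout, for thermal stability score vs G1/S (z-score of summed log2 fold changes over temperatures): synchronized HeLa Kyoto cells, proteins quantified by TMT10plex mass spectrometry, three biological replicates, mitosis taken 0.5 h after nocodazole release, G1/S directly after double thymidine block.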

Consider “MELFQAKDHYILQQGERALWCSRRDGGLQLRPATDLLLAWNPICLGLVEGVIGKIQLHSDLPWWLILIRQKALVGKLPGDHEVCKVTKIAVLSLSEMEPQDLELELCKKHHFGINKPEKIIPSPDDSKFLLKTFTHIKSNVSAPNKKKVKESKEKEKLERRLLEELLKMFMDSESFYYSLTYDLTNSVQRQSTGERDGRPLWQKVDDRFFWNKYMIQDLTEIGTPDVDFWIIPMIQGFVQIEELVVNYTESSDDEKSSPETPPQESTCVDDIHPRFLVALISRRSRHRAGMRYKRRGVDKNGNVANYVETEQLIHVHNHTLSFVQTRGSVPVFWSQVGYRYNPRPRLDRSEKETVAYFCAHFEEQLNIYKKQVIINLVDQAGREKIIGDAYLKQVLLFNNSHLTYVSFDFHEHCRGMKFENVQTLTDAIYDIILDMKWCWVDEAGVICKQEGIFRVNCMDCLDRTNVVQAAIARVVMEQQLKKLGVMPPEQPLPVKCNRIYQIMWANNGDSISRQYAGTAALKGDFTRTGERKLAGVMKDGVNSANRYYLNRFKDAYRQAVIDLMQGIPVTEDLYSIFTKEKEHEALHKENQRSHQELISQLLQSYMKLLLPDDEKFHGGWALIDCDPSLIDATHRDVDVLLLLSNSAYYVAYYDDEVDKVNQYQRLSLENLEKIEIGPEPTLFGKPKFSCMRLHYRYKEASGYFHTLRAVMRNPEEDGKDTLQCIAEMLQITKQAMGSDLPIIEKKLERKSSKPHEDIIGIRSQNQGSLAQGKNFLMSKFSSLNQKVKQTKSNVNIGNLRKLGNFTKPEMKVNFLKPNLKVNLWKSDSSLETMENTGVMDKVQAESDGDMSSDNDSYHSDEFLTNSKSDEDRQLANSLESVGPIDYVLPSCGIIASAPRLGSRSQSLSSTDSSVHAPSEITVAHGSGLGKGQESPLKKSPSAGDVHILTGFAKPMDIYCHRFVQDAQNKVTHLSETRSVSQQASQERNQMTNQVSNETQSESTEQTPSRPSQLDVSLSATGPQFLSVEPAHSVASQKTPTSASSMLELETGLHVTPSPSESSSSRAVSPFAKIRSSMVQVASITQAGLTHGINFAVSKVQKSPPEPEIINQVQQNELKKMFIQCQTRIIQI [INPP5F]”, for which the “solubility change mitosis (log2)” value with HeLa Kyoto [1] was -0.171. Besides, the values for the melting temperature in the series with HeLa Kyoto [2] (cell cycle stage: G1/S) and with HeLa Kyoto [2] (cell cycle stage: mitosis) were 51.3 °C and 49.3 °C, respectively. Besides, the “solubility in G1/S (log2)” value with HeLa Kyoto [3] is -0.015.

For the sequence “MRESALERGPVPEAPAGGPVHAVTVVTLLEKLASMLETLRERQGGLARRQGGLAGSVRRIQSGLGALSRSHDTTSNTLAQLLAKAERVSSHANAAQERAVRRAAQVQRLEANHGLLVARGKLHVLLFKEEGEVPASAFQKAPEPLGPADQSELGPEQLEAEVGESSDEEPVESRAQRLRRTGLQKVQSLRRALSGRKGPAAPPPTPVKPPRLGPGRSAEAQPEAQPALEPTLEPEPPQDTEEDPGRPGAAEEALLQMESVA [PRKCDBP]”, in the series with HeLa Kyoto [1], the “solubility change mitosis (log2)” value stood at 0.338. The melting temperature in the series with HeLa Kyoto [2] (cell cycle stage: G1/S) came to 53.9 °C; with HeLa Kyoto [2] (cell cycle stage: mitosis) it was 52.8 °C. Moreover, in the series with HeLa Kyoto [3], the “solubility in G1/S (log2)” value worked out at 0.305.

For “MAADVSVTHRPPLSPKSGAEVEAGDAAERRAPEEELPPLDPEEIRKRLEHTERQFRNRRKILIRGLPGDVTNQEVHDLLSDYELKYCFVDKYKGTAFVTLLNGEQAEAAINAFHQSRLRERELSVQLQPTDALLCVANLPPSLTQQQFEELVRPFGSLERCFLVYSERTGQSKGYGFAEYMKKDSAARAKSDLLGKPLGPRTLYVHWTDAGQLTPALLHSRCLCVDRLPPGFNDVDALCRALSAVHSPTFCQLACGQDGQLKGFAVLEYETAEMAEEAQQQADGLSLGGSHLRVSFCAPGPPGRSMLAALIAAQATALNRGKGLLPEPNILQLLNNLGPSASLQLLLNPLLHGSAGGKQGLLGAPPAMPLLNGPALSTALLQLALQTQGQKKPGILGDSPLGALQPGAQPANPLLGELPAGGGLPPELPPRRGKPPPLLPSVLGPAGGDREALGLGPPAAQLTPPPAPVGLRGSGLRGPLSHFYSGSPTSYFTSGLQAGLKQSHLSKAIGSSPLGSGEGLLGLSPGPNGHSHLLKVRAGGGDMQGWEAPAPQRPLTRPALPSVSRPHWAARNAALPTCCPRPSPAQKAAMWASTPRASAATTRTPT [RAVER1]”, the “solubility change mitosis (log2)” value in the series with HeLa Kyoto [1] was determined as 0.165. Further, the melting temperature in the series with HeLa Kyoto [2] (cell cycle stage: G1/S) came out at 46.3 °C; in the series with HeLa Kyoto [2] (cell cycle stage: mitosis) it was 48.9 °C. Moreover, the “solubility in G1/S (log2)” value with HeLa Kyoto [3] is 0.344.

With “MENFRKVRSEEAPAGCGAEGGGPGSGPFADLAPGAVHMRVKEGSKIRNLMAFATASMAQPATRAIVFSGCGRATTKTVTCAEILKRRLAGLHQVTRLRYRSVREVWQSLPPGPTQGQTPGEPAASLSVLKNVPGLAILLSKDALDPRQPGYQPPNPHPGPSSPPAAPASKRSLGEPAAGEGSAKRSQPEPGVADEDQTA [RPP25]”, the “solubility change mitosis (log2)” value in the series with HeLa Kyoto [1] turned out to be 0.258. Besides, the melting temperature stood at 54.5 °C with HeLa Kyoto [2] (cell cycle stage: G1/S) and 53.7 °C with HeLa Kyoto [2] (cell cycle stage: mitosis). The “solubility in G1/S (log2)” value in the series with HeLa Kyoto [3] was determined as 0.179.

For the sequence “MGGLFWRSALRGLRCGPRAPGPSLLVRHGSGGPSWTRERTLVAVKPDGVQRRLVGDVIQRFERRGFTLVGMKMLQAPESVLAEHYQDLRRKPFYPALIRYMSSGPVVAMVWEGYNVVRASRAMIGHTDSAEAAPGTIRGDFSVHISRNVIHASDSVEGAQREIQLWFQSSELVSWADGGQHSSIHPA [NME4]”, the “solubility change mitosis (log2)” value in the series on HeLa Kyoto [1] is -0.189. In addition, the melting temperature worked out at 54.9 °C in the series on HeLa Kyoto [2] (cell cycle stage: G1/S) and 54.5 °C in the series on HeLa Kyoto [2] (cell cycle stage: mitosis). Also, the “solubility in G1/S (log2)” value in the series on HeLa Kyoto [3] amounted to 0.0944.

For the sequence “MVTEQEVDAIGQTLVDPKQPLQARFRALFTLRGLGGPGAIAWISQAFDDDSALLKHELAYCLGQMQDARAIPMLVDVLQDTRQEPMVRHEAGEALGAIGDPEVLEILKQYSSDPVIEVAETCQLAVRRLEWLQQHGGEPAAGPYLSVDPAPPAEERDVGRLREALLDESRPLFERYRAMFALRNAGGEEAALALAEGLHCGSALFRHEVGYVLGQLQHEAAVPQLAAALARCTENPMVRHECAEALGAIARPACLAALQAHADDPERVVRESCEVALDMYEHETGRAFQYADGLEQLRGAPS [DOHH]”, the “solubility change mitosis (log2)” value with HeLa Kyoto [1] turned out to be 0.308. Also, the melting temperature in the series with HeLa Kyoto [2] (cell cycle stage: G1/S) was 50.3 °C; with HeLa Kyoto [2] (cell cycle stage: mitosis), 50.6 °C. Further, the “solubility in G1/S (log2)” value with HeLa Kyoto [3] was found to be 0.137.

Regarding “MDNLSSEEIQQRAHQITDESLESTRRILGLAIESQDAGIKTITMLDEQKEQLNRIEEGLDQINKDMRETEKTLTELNKCCGLCVCPCNRTKNFESGKAYKTTWGDGGENSPCNVVSKQPGPVTNGQLQQPTTGAASGGYIKRITNDAREDEMEENLTQVGSILGNLKDMALNIGNEIDAQNPQIKRITDKADTNRDRIDIANARAKKLIDS [SNAP23]”, in the series with HeLa Kyoto [1], the “solubility change mitosis (log2)” value was 0.381. Besides, the melting temperature in the series with HeLa Kyoto [2] (cell cycle stage: G1/S) stood at 54.8 °C; in the series with HeLa Kyoto [2] (cell cycle stage: mitosis) it was 54 °C. Besides, the “solubility in G1/S (log2)” value in the series with HeLa Kyoto [3] was -0.00465.

Turning to “MTTLDHVIATHQSEWVSFNEEPPFPAHSQGGTEEHLPGLSSSPDQSESSSGENHVVDGGSQDHSHSEQDDSSEKMGLISEAASPPGSPEQPPPDLASAISNWVQFEDDTPWASTSPPHQETAETALPLTMPCWTCPSFDSLGRCPLTSESSWTTHSEDTSSPSFGCSYTDLQLINAEEQTSGQASGADSTDNSSSLQEDEEVEMEAISWQASSPAMNGHPAPPVTSARFPSWVTFDDNEVSCPLPPVTSPLKPNTPPSASVIPDVPYNSMGSFKKRDRPKSTLMNFSKVQKLDISSLNRTPSVTEASPWRATNPFLNETLQDVQPSPINPFSAFFEEQERRSQNSSISSTTGKSQRDSLIVIYQDAISFDDSSKTQSHSDAVEKLKQLQIDDPDHFGSATLPDDDPVAWIELDAHPPGSARSQPRDGWPMMLRIPEKKNIMSSRHWGPIFVKLTDTGYLQLYYEQGLEKPFREFKLEICHEISEPRLQNYDENGRIHSLRIDRVTYKEKKKYQPKPAVAHTAEREQVIKLGTTNYDDFLSFIHAVQDRLMDLPVLSMDLSTVGLNYLEEEITVDVRDEFSGIVSKGDNQILQHHVLTRIHILSFLSGLAECRLGLNDILVKGNEIVLRQDIMPTTTTKWIKLHECRFHGCVDEDVFHNSRVILFNPLDACRFELMRFRTVFAEKTLPFTLRTATSVNGAEVEVQSWLRMSTGFSANRDPLTQVPCENVMIRYPVPSEWVKNFRRESVLGEKSLKAKVNRGASFGSTSVSGSEPVMRVTLGTAKYEHAFNSIVWRINRLPDKNSASGHPHCFFCHLELGSDREVPSRFANHVNVEFSMPTTSASKASVRSISVEDKTDVRKWVNYSAHYSYQVALGSIWLMLPTPFVHPTTLPLLFLLAMLTMFAW [STON2]”, the “solubility change mitosis (log2)” value in the series with HeLa Kyoto [1] came out at 0.444. In the series with HeLa Kyoto [3], the “solubility in G1/S (log2)” value was -0.622. The results for the thermal stability score in the series with HeLa Kyoto [4] (cell cycle stage: early G1 (4.5 h after nocodazole release)) and with HeLa Kyoto [4] (cell cycle stage: mitosis) were 0.129 and -0.103, respectively.

(Values after the supplement of paper PMC5998384.)
